For two substances, hIRA mem (% rel to HI), relative binding affinity results are on record in patent US20230192801A1.

For the assay, the target named is membrane-associated human IR-A (plasma membranes of BHK cells stably transfected with human IR-A) (human) (UniProt P06213). The assay is described as follows: competition SPA, displacement of [125I-A14Y]-human insulin from membrane-associated human IR-A; affinity relative to human insulin standard. (Displacement assays read how much labelled ligand stays bound in the presence of the test substance.)

“A9E, B3E, B26E, desB30 human insulin (ligand)”: the hIRA mem (% rel to HI), relative binding affinity is 55.8 % rel to HI.
As for “A9E, B3E, B27E, B28E, desB30 human insulin (ligand)”, the figure is 35.4 % rel to HI.
